Residue numbers refer to the chain shown, from its start. Where two headings read alike, the source gives them in different places.

The target of assay [1] is T1, JE VLP (Japanese encephalitis virus, UniProt P27395).
T1 construct: virus-like particle; also called Japanese Encephalitis Virus VLP
The assay can be described thus: Luminex bead assay (antigen on MagPlex beads, MFI).

Assay [2] concerns the target T2, DENV-4 VLP (Dengue virus serotype 4, strain …, UniProt P09866 114-774). The experiment in a line: Luminex, VLP-coupled beads.
Assay [3] concerns the target T2, DENV-4 VLP.
In assay [4] the target is T1, JE VLP. The assay can be described thus: Luminex bead assay (antigen on MagPlex beads, MFI). This is another data set of the same source.
The target in assay [5] is T1, JE VLP. The assay can be described thus: Luminex bead assay (antigen on MagPlex beads, MFI). The source holds these as a separate data set.
Assay [6] concerns the target T2, DENV-4 VLP. The experiment in a line: Luminex bead assay (antigen on MagPlex beads, MFI).
In assay [7] the target is T1, JE VLP. The experiment in a line: Luminex bead assay (antigen on MagPlex beads, MFI). The source holds these as a separate data set.
For assay [8], the target named is T2, DENV-4 VLP. The assay can be described thus: Luminex bead assay (antigen on MagPlex beads, MFI). The source holds these as a separate data set.

T1 sequence (P27395 128-794 limits assumed): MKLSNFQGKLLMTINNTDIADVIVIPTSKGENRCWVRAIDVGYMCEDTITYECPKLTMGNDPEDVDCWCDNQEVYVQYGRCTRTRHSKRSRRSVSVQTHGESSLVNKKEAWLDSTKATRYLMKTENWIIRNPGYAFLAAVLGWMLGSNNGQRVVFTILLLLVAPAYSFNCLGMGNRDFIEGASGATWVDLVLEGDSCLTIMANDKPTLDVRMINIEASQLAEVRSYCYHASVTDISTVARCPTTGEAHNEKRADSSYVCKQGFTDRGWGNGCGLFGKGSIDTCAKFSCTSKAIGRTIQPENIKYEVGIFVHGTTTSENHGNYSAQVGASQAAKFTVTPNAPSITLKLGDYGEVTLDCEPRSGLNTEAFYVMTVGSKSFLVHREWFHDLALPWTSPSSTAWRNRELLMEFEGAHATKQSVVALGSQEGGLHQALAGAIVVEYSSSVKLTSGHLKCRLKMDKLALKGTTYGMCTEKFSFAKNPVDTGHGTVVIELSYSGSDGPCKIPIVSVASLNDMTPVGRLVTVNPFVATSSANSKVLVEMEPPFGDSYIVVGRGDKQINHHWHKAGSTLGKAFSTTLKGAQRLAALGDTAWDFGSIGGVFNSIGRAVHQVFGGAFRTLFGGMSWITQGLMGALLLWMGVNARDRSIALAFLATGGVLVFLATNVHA

B1: DENV4-5B11 (antibody, V domains shown)
VH: QSVEESGGRLVTPGTPLTLTCTVSGFSLSDSAMSWVRQAPGKGLEWIGYIYAGSGTTYYASWAKGRFTISKTSTTVDLKITSPTTEDTATYFCARATAYVGYGYGDDTFDPWGPGTLVTVSS
VL: AYDMTQTPASVEVAVGGTVTIKCQASQSISSYLSWYQQKPGQRPKLLIYRASTLASGVSSRFKGSGSGTEFTLTISGVQCDDAATYYCQQGYSNSDVDNVFGGGTEVVVK
notes: also called Clone 5B11
For B1, the binding result in the assay with JE VLP [1] is “no binding (tested: 10000 ng/mL)”. For the same molecule, in the assay with DENV-4 VLP [2], it took 0.0192 µg/mL to reach a half-maximal effect (EC50). In the assay with DENV-4 VLP [3], the “Response (nm)” value stood at 2.39 nm and the dissociation rate constant (koff) (as a rule, the first-order rate constant of dissociation) amounted to 2.36e-05 s⁻¹.

B2: DENV4-7G4 (antibody, V domains shown)
VH: B1 VH with D30S, S31C, S34T, A52V, G53D, G55D, K71T, K79R, A96T, Y102G
VL: DVVMTQTPASVEAAVGGTVTINCQASQNINSYLSWYQQKPGQRPKLLIYRAFTLASGVSSRFKGSGSGTQFTLTISGVECADAATYYCQQGYSFSGVDNVFGGGTEVVVK
notes: also called Clone 7G4
With B2, the binding result in the assay with JE VLP [1] is “no binding (tested: 10000 ng/mL)”. Also, the response with DENV-4 VLP [2] was half-maximal at 0.0214 µg/mL (EC50). In addition, in the assay with DENV-4 VLP [3], the “Response (nm)” value came to 2.16 nm and the off-rate constant (koff) is less than 2e-05 s⁻¹.

B3: DENV4-7F2 (antibody, V domains shown)
VH: QSVEESGGRLVTPGTPLTLTCTVSGIDLSYYAMGWVRQAPGEGLECIGFIDTGDSAYYASWAKGRFTISKTSSTTVDLKITSPTPEDTATYFCGRSLSSYYDWDAFDPWGPGTLVTVSS
VL: AYDMTQTPASVEVAVGGTVTINCQASQTIGNLLAWYQQKPGQRPKLLIYRASTLASGVPSRFKGSGSGTQFTLTISGVECADAATYYCQQGASANDIDNSFGGGTAVVVK
notes: also called Clone 7F2
Take B3: the binding result with JE VLP [1] is listed as “no binding (tested: 10000 ng/mL)”. Further, the 50% effective concentration (EC50) (commonly the concentration needed to bring the measured effect to its halfway point) in the assay with DENV-4 VLP [2] worked out at 0.0407 µg/mL. In the assay with DENV-4 VLP [3], the “Response (nm)” value amounted to 2.32 nm and the koff came to 3.67e-05 s⁻¹.

B4: DENV4-10A11 (antibody, V domains shown)
VH: QSVEESGGRLVTPGTPLTLTCTVSGINLSFYAMGWVRQAPGKGLECVGFIDTDNSAYYASWAKGRFTISKTSTTVDLKITSPTTEDTATYFCARSLSSFYDWDAFDPWGPGTLVTVSS
VL: B3 VL with N22K, Q24L, T28S, G30S, A94N, N95S, S100A, A106E
notes: also called Clone 10A11; 10A1l
The molecule B4 gave a 50% effective concentration (EC50) with DENV-4 VLP [2] of 0.0236 µg/mL. Besides, in the assay with DENV-4 VLP [3], the “Response (nm)” value was found to be 2.17 nm and the off-rate constant (koff) is 4.17e-05 s⁻¹. Besides, in the assay with JE VLP [4], the binding result is “no binding (tested: 10000 ng/mL)”.

B5: DENV2-3H11 (antibody, V domains shown)
VH: QSVEESGGRLVTPGTPLTLTCTVSGFSLINYDMSWIRQAPGKGLEWIGMVSGGGHTNYASWANGRFTISKTSSTTMDLKITSPTTEDTASYFCGRWDIWGPGTLVTVSL
VL: AVVVTQTASPVSAAVGGTVTISCQSSQSVYDDNWLAWYQQKPGQPPKQLIYRASRLASGVPSRFSGTGSGTQFTLTISGVQCDDAATYYCLGGYVDDGDTTFGGGTEVVVK
notes: also called DENV2-3H111
In the case of B5, the binding result in the assay with JE VLP [5] and with DENV-4 VLP [6] was “no binding (tested: 10000 ng/mL)” each time.

B6: DENV4-7D5 (antibody, V domains shown)
VH: QSVEESGGRLVTPGTPLTLTCTVSGIDLSSWEMGWVRQAPGKGLEWIGIIFPSGTIYYANWAKGRFAISKASTTVDLKITSPTTEDTATYFCGRHGGSLYLNIWGPGTLVTVSL
VL: AQVLTQTPSPVSAAVGGTVTINCQASQSVYVNRNLAWYQQKPGQPPKVLIYEASKLASGVPSRFKGSGSGTQFTLTISGVQCDDAATYYCQGEFGCSSADCIAFGGGTEVVVK
notes: also called Clone 7D5
B6: the binding result with JE VLP [1] is given as “no binding (tested: 10000 ng/mL)”. Besides, the EC50 in the assay with DENV-4 VLP [2] amounted to 0.0232 µg/mL. In the assay with DENV-4 VLP [3], the “Response (nm)” value amounted to 2.45 nm and the koff turned out to be 3.56e-05 s⁻¹.

B7: DENV4-8C7 (antibody, V domains shown)
VH: B6 VH with W31Y, A67T, A71T
VL: B6 VL
notes: also called Clone 8C7
As to B7, in the assay with DENV-4 VLP [2], the EC50 came out at 0.0176 µg/mL. In the assay with DENV-4 VLP [3], the “Response (nm)” value worked out at 2.38 nm and the koff turned out to be 3.32e-05 s⁻¹. Also, the binding result in the assay with JE VLP [4] is listed as “no binding (tested: 10000 ng/mL)”.

B8: DENV2-5F4 (antibody, V domains shown)
VH: QSVEESGGRLVKPDETLTLTCTVSGIDLSNTVISWVRQAPGKGLEYIGMITPSGSAYSATWAKGRVTISRTSTTVDLKIASPTTEDTATYFCARIAWSTGRNDIWGPGTLVTVSS
VL: AAVLTQTPPSVSAAVGGTVTIKCQSSQSVYNNNALSWYQQKPGQPPKLLIYQASKLSSGVSSRFSGSGSGTHFTLTISGVQCDDAATYYCLGIYDDDVDNTFGGGTEVVVG
For the molecule B8, the binding result with JE VLP [7] and in the assay with DENV-4 VLP [8] was “no binding (tested: 10000 ng/mL)” in each case.

B9: DENV2-8D8 (antibody, V domains shown)
VH: QSLEESGGRLVKPDETLTLTCTVSGIDLSSTIITWVRQAPGKGLEYIGIIGSSGSIISANWAKGRFTISRTSTTVDLKMTSLTTEDTATYFCARIAWSTGRNDIWGPGTLVTVSS
VL: B8 VL with K22S, Q52L, K55N, S57A, S61P, H72Q, Y89H, I93V, Y94D, G111K
In the case of B9, the binding result with JE VLP [7] and with DENV-4 VLP [8] was “no binding (tested: 10000 ng/mL)” throughout.

B10: DENV4-9G8 (antibody, V domains shown)
VH: QSLEESGGGLVKPGASLTLTCTASGFSFSYRYWMSWVRQAPGKRPEWIACIDTGNGDTYYASRAKGRFTIMKTSSTTVTLQMTSLTVADTATYFCARSDVTLTGYGYGNLWGPGTLVTVSS
VL: DSVMTQTPASVSEPVGGTVTINCQASHNIYNSLAWYQQKPGQPPKLLIYRASTLESGVPSRVKGSGYGTEYTLTISDLECADAATYYCQQYYGGDDDGFGFGGGTEVVVK
notes: also called Clone 9G8
B10 displayed a concentration giving a half-maximal response (EC50) with DENV-4 VLP [2] of 0.0713 µg/mL. In addition, in the assay with DENV-4 VLP [3], the “Response (nm)” value amounted to 0.137 nm and the koff was less than 2e-05 s⁻¹. The binding result with JE VLP [4] is “no binding (tested: 10000 ng/mL)”.

The values are drawn from patent publication US20260167703A1 (Takeda / Millennium, published 2026).
